Residue numbers refer to the chain shown, from its start. Names and notes keep the numbering of the source.

For assay [1], the target named is cynomolgus GDF-15 (cynomolgus monkey). Kind of assay: SPR, Biacore T3000, antibody captured by anti-human IgG Fc, GDF-15 injected.
Assay [2] addresses T1, recombinant human GDF-15 (human, Disulfide-linked homodimer: two copies of this chain form the 24.6 kDa molecule of Table 1.).
T1 chain: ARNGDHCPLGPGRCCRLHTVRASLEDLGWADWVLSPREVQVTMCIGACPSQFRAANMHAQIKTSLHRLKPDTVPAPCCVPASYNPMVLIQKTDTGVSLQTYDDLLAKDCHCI
Kind of assay: cell-based or functional assay.

The target of assay [3] is T1, recombinant human GDF-15. Kind of assay: SPR, Biacore T3000, antibody captured by anti-human IgG Fc, GDF-15 injected. As for the experimental part:
(§1) Affinity of CTL-002 to recombinant human GDF-15 was determined by measuring surface plasmon resonance on a Biacore T3000. In addition, the affinity to cynomolgus rat and mouse GDF-15 was measured (see Table 2).
(§2) All experiments were performed in 10 mM HEPES buffer, pH 7.4, 150 mM NaCl, 3.4 mM EDTA and 0.05% Tween. anti-human IgG Fc specific antibody (Jackson, Order #109-005-008, Lot #111148) was covalently immobilized by EDC/NHS chemistry on Biacore CM5 Chips (GE Healthcare, Order #61144275, Lot #10236645). For kinetic characterization of the antigen-antibody interaction pulses of increasing GDF-15 concentrations (e.g. 156.3 pM, 312 pM, 625 pM, 1,250 pM) were injected at a flow rate of 30 μl/min. After each measurement cycle (8 min of association followed by 30 min of dissociation) the antibody-antigen complex was resolved by regeneration of the surface with 10 mM glycine-HCl at pH 2.0. For calculation of the dissociation constant of CTL-002 the association and dissociation phases were recorded and evaluated by global fitting using the software BIAevaluation 4.1. For global fit analysis only, these antigen concentrations were taken into account, which allowed the analysis following the Langmuir 1:1 binding model or 1:1 binding with drifting baseline.

The target of another assay is T2, rat GDF-15 (rat, UniProt Q9Z0J6 189-303, limits assumed).
T2 construct: the construct used in SPR is not described
T2 sequence (looked up): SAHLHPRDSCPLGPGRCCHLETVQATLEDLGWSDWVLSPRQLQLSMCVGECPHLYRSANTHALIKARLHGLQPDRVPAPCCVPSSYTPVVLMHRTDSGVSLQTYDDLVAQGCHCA
The assay is described as above. As for the experimental part: as §1, §2

The target of another assay is T3, mouse GDF-15 (mouse, UniProt Q9Z0J7 189-303).
T3 construct: the construct used in SPR is not described; also called mGDF-15; murine GDF-15
T3 sequence (looked up): T2 sequence (looked up) with L4A, L63Q, R75K, Q110R
Described as above. As for the experimental part:
as §1, §2

B1: CTL-002 (antibody, human IgG4 S228P, kappa, V domains shown)
VH: QITLKESGPTLVKPTQTLTLTCTFSGFSLSTSGMGVSWIRQPPGKGLEWLAHIYWDDDKRYNPTLKSRLTITKDPSKNQVVLTMTNMDPVDTATYYCARSSYGAMDYWGQGTLVTVSS
VL: DIVLTQSPSFLSASVGDRVTITCKASQNVGTNVAWFQQKPGKSPKALIYSASYRYSGVPDRFTGSGSGTEFTLTISSLQPEDFAAYFCQQYNNFPYTFGGGTKLEIKR
notes: Humanized, hinge-stabilized IgG4 (IgG4 S228P) derived from mouse antibody B1-23; captured by anti-human IgG Fc on the chip in the SPR assay; also called visugromab; CTL-001 IgG4*
For the molecule B1, the dissociation constant Kd in assay [1] is 0.108 nM; with recombinant human GDF-15 [3] it was 0.0383 nM; with rat GDF-15 it was 0.449 nM; in the assay with mouse GDF-15 it was 9.76 nM. Further, the “EC50 of CTL-002 in the flow-adhesion assay with T cells” value in the assay with recombinant human GDF-15 [2] is 0.707 µg/mL. For the same molecule, in the assay with recombinant human GDF-15 [2], the “EC50 of rescue of CD8+ T-cell adhesion, flow-adhesion assay” value was about 0.7 µg/mL.

The values above are taken from patent US20250304673A1 (CATALYM, published 2025).
